Measurements taken from patent US20190381169A1, “PHARMACEUTICAL COMBINATIONS FOR IMMUNOTHERAPY” (Technische Universitat Dresden, priority 2014, published 2019).
“Also recorded” adds a separate entry of the source.

Experiments:
[1] = biological target: T1, p75^NTR (Mus musculus, UniProt Q9Z0W1); assay: Western blotting of TLR signalling proteins in CpG treated murine PDCs; assay type: cell-based
T1 construct: endogenous in cells; host or cells: murine plasmacytoid dendritic cells differentiated in vitro from bone marrow with Flt3-L (p75NTR+/+ wildtype; p75NTR-/- as control)
T1 sequence (Q9Z0W1 32-427): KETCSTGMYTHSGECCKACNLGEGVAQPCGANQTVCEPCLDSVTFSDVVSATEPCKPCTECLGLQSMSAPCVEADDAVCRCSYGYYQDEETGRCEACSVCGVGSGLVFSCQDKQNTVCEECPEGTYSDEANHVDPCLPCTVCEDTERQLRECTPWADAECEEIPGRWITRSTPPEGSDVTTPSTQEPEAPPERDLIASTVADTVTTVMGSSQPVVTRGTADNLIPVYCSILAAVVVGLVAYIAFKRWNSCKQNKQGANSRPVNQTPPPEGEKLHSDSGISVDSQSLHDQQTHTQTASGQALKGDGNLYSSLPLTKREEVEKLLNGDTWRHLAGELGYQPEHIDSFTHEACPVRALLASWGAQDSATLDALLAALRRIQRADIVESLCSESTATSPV
Description: To investigate the mechanisms underlying these effects, we analysed PDCs treated with CPG-ODNs Class A (FIG. 3F) or Class B (FIG. 3G) using western blotting.

[2] = biological target: T2, p75^NTR (Homo sapiens, UniProt P08138); assay: Antigen mediated proliferation and cytokine secretion of CD4+ T-cells co-cultured with autologous PDC of allergic donors; assay type: cell-based; set-up: nerve growth factor receptor p75^NTR, which is expressed by human and murine plasmacytoid dendritic cells (PDC); endogenous in cells; host or cells: primary human plasmacytoid dendritic cells (BDCA-4+ selection) from buffy coats or from peripheral blood of allergic donors
T2 sequence (P08138 29-427): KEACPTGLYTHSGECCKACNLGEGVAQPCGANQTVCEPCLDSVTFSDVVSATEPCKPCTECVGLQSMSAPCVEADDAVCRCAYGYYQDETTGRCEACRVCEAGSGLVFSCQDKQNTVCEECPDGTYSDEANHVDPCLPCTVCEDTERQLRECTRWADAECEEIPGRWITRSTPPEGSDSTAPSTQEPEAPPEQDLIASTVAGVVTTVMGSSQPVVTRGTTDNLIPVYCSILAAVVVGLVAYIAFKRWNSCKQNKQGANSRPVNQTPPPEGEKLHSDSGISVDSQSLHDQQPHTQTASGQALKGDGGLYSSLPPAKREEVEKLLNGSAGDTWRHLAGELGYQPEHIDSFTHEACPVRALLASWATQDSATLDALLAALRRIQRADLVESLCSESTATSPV
Procedure: CD4^+ T helper cells and PDC used in antigen mediated autologous CD4^+ T-cell proliferation assays were purified from peripheral blood (80 ml) obtained from specified donors who are known to have allergy against certain allergens. Peripheral blood was drawn in tubes containing Li-Heparin as anti-coagulant (S-Monovette Li-Heparin 7.5 ml, Sarstedt). CD4^+ T helper cells were purified from peripheral blood mononuclear cells by negative selection using CD4^+ T-cell isolation kit II (Miltenyi Biotec), as per manufacturer's instructions with slight modifications. Briefly, the cell pellet was re-suspended in 50 μl PBS E/B. Then 12 μl of Biotin-labelled antibody cocktail per 10^7 total cells were added and the cell suspension was incubated at 4° C. for 15 minutes. 50 μl of PBS E/B was added followed by addition of 25 μl of anti-biotin microbeads per 10^7 total cells. Cells were incubated at 4° C. for another 20 minutes, followed by washing with 10 ml PBS E/B and centrifugation (470 g for 6 minutes). […] The purity of isolated CD4^+ T helper cells was over 95% as assessed by flow cytometric analysis after co-staining with monoclonal mouse anti human CD3-PE (BD Biosciences) and monoclonal mouse anti human CD4-FITC (BD Biosciences). […]
Purified CD4^+ T helper cells (see above) were washed once with PBS. […] Cell number was determined.
Antigen mediated CD4^+ T helper cell proliferation responses were assayed using purified and CFSE labelled CD4^+ T helper cells in co-culture with purified PDC/BDAC4^+ cells. […] After 5 days of co-culture, supernatant was analyzed for Th1/Th2 cytokines by using BD cytokine bead array (CBA) Human Th1/Th2 cytokine kit (BD Biosciences) and percentages of proliferating CFSE-low CD4^+ T-cells were analyzed by flow cytometry.
The concentrations of IL-2, IL-4, IL-5, IL-10, IFNγ and TNFα in the supernatant were determined by using the CBA kit following manufacturer's instruction with modification in data analysis using Microsoft Excel. […]

[3] = CpG A stimulated p75^NTR+/+ PDCs, NGF added
[4] = p75^NTR+/+ PDCs co-incubated with CpG B and NGF

With “NGF: Nerve growth factor, best characterized neurotrophin; natural p75^NTR agonist (R&D Systems)” the “activation (phosphorylation) of IRF-3, IRF7, IKK and c-Jun” value [1, 3] was “reduced activation”, the “expression of MyD88 and TRAF6” value [1, 3] was “reduced expression” and the “CpG A-induced phosphorylation of IRF3 and IRF7” value ([1]; p75^NTR+/+ PDCs) was “attenuated”. For the same substance, the “activation (phosphorylation) of IRF3, IRF7, IKK and c-Jun” value [1, 4] was “increased”, the “expression of MyD88 and TRAF3” value [1, 4] was “increased expression” and the “levels of CpG-induced phosphorylation of IRF3 and IRF7 in p75^NTR−/− pDCs” value ([1]; p75^NTR−/− pDCs) was “did not alter”. The “secretion of IL-2 and IL-5” value ([2]; CD4+ T-cell/PDC co-culture with allergen, NGF vs without NGF) was “dose-dependent increased secretion; also recorded: increasing secretion”, the “antigen (allergen) mediated CD4+ T-cells proliferation (CFSE)” value ([2]; co-culture with autologous PDC plus specific allergen, NGF (25 ng/ml elsewhere in the source) vs without NGF, 5 days) was “significantly increased; also recorded: increased proliferation” and the “proliferation of T-cells on its own (without PDC co-culture)” value ([2]; with or without antigen plus minus NGF or with NGF alone) was “did not show any proliferation”.
